Consider 1 substance from publication PMC5488163.

This experiment addresses free 17K‐apo(a) variant (purified recombinant apolipoprotein(a) with 17 KIV domains) (human). The experiment can be described thus: co-IP.

As for “purified HCVcc, infectious hepatitis C virus particles (JFH1‐CS‐A4‐RLuc‐TM) (complex)”, the percent of HCV RNAs coimmunoprecipitated is 39.9%.
